Experimental data as given in patent US20230025280A1, “PH RESPONSIVE COMPOSITIONS, FORMULATIONS, AND METHODS OF IMAGING A TUMOR” (ONCONANO MEDICINE, INC, priority 2019, published 2023).
Values joined by “and” are separate entries in the source; they are usually repeats but may differ in a detail not shown here. Equal values may be shown once.

Experiment: Phase 1 (1a/1b) pharmacokinetics: plasma concentrations after single IV dose (validated direct fluorescence reader assay), noncompartmental analysis
Assay type: in vivo, human
Details: for AUC0-24 hr / AUCall / AUClast / C10 m / Cmax / T1/2 / Tmax / Plasma Conc: Phase 1b; for AUC0-24 hr / AUCall / AUClast / C10 m / Cmax / T1/2 / Tmax: 1.2 mg/kg single IV; for Plasma Conc: 1.2 mg/kg
Source text: Phase 1 is a single-Principal Investigator, non-randomized, open-label, single-arm, cross-sectional study to evaluate the safety, PK profile, and imaging feasibility of Compound 1 in patients with solid cancers who require surgical excision. The main purpose of this study was to investigate the safety, PK, and feasibility of Compound 1 as an intra-operative optical imaging agent to detect tumors and metastatic lymph nodes in solid cancers. The study was intended to investigate the optimal dose range of Compound 1 for an adequate TBR and CNR of fluorescence obtained intraoperatively at 24 (±8) hours post dosing and with ex vivo specimens using ICG compatible cameras and imaging devices.
Phase 1 enrolled 30 patients with solid cancers (HNSCC, breast cancer, esophageal cancer, or colorectal cancer) who have a biopsy-confirmed diagnosis of respective tumor types and are scheduled to undergo surgical resection of the tumor. The study design included a standard 3+3 design for the dose-escalation portion (Phase 1a; N=18 maximum) followed by a dose-expansion portion (Phase 1b; N=15). All patients received a single I.V. dose of Compound 1, followed by routine surgery approximately 24 hours after infusion of Compound 1.
Phase 1a was a dose-finding study performed in 5 cohorts of 3 patients each. The dose levels evaluated were […], and 1.2 mg/kg, in this sequence. Inter-cohort dose escalation took place after the last patient in the previous cohort completed the Day 10 safety assessment. Safety, PK, and imaging feasibility were evaluated in both the Phase 1a and 1b portions of the study. Patient safety is assessed during the study and for up to 10 days post-dose.
Study design: Single Compound 1 IV dose was administered as a 1-5 minute IV infusion to patients in five cohorts (0.1, 0.3, 0.5, 0.8, and 1.2 mg/kg) with three patients per cohort in Phase 1a and 15 patients at a dose of 1.2 mg/kg in Phase 1b. Patient demographic information including tumor types is presented in Table 4 and 5 for Phase 1a and Table 5 for Phase 1b. Intertek Pharmaceutical Services (San Diego, Calif.) determined Compound 1 plasma concentrations using a validated direct fluorescence reader assay. Pacific BioDevelopment (Davis, Calif.) performed the PK analysis.
Sample collection: Blood samples were collected prior to infusion and at 10 minutes and 0.5, 1, 3, 8, 24, 48, 72, and 240 hours after infusion.
Analysis: Plasma concentration versus time profiles were generated for each patient. Pharmacokinetic parameters were estimated using Phoenix WinNonlin (version 8.0). According to SOP, concentrations reported as BQL were set to 0 except for the 0.5 h sample for subject #ON1102, which was set to LLOQ/2 ([…] value used in parameter calculations) and the 24 and 48 h samples.
If the coefficient of determination for the terminal slope estimation was less than 0.8, T1/2 was not reported (NR). AUC extrapolated to infinity is not reported for any data set because in all cases the % extrapolated AUC was greater than 20% and thus the AUCinf estimate would not be reliable. The concentration at 10 minutes, the first time point measured (C10m), was also reported for each patient.
The area under the plasma concentration versus time curves from dosing to the last time point with a measurable concentration (AUClast) was estimated by the linear trapezoid method. The last three or more time points were used to estimate the elimination rate constant (λz) which was used to estimate the terminal-phase half-life (T1/2) and AUC from zero to infinity (AUCINF) from the following equations: […]

## PEO90-140-b-P(DBA60-150-r-ICG0-3-r-AMA0-3) [Compound 1]
mean
  AUC0-24 hr: 638 µg·h/mL
  AUCall: 1840 µg·h/mL
  AUClast: 1180 µg·h/mL
  C10 m: 33.2 µg/mL
  Cmax: 34800 ng/mL
  T1/2: 46.4 h
  Tmax: 0.967 h
median
  AUC0-24 hr: 626 µg·h/mL
  AUCall: 1460 µg·h/mL
  AUClast: 1110 µg·h/mL
  C10 m: 32.1 µg/mL
  Cmax: 34100 ng/mL
  T1/2: 42.6 h
  Tmax: 1.00 h
0.170 hr, individual subject
  Plasma Conc: 27.5 µg/mL and 38.6 µg/mL and 30.3 µg/mL and 31.4 µg/mL and 25.5 µg/mL and 40.0 µg/mL and 47.6 µg/mL and 32.6 µg/mL and 31.3 µg/mL and 36.5 µg/mL and 32.1 µg/mL and 35.8 µg/mL and 33.0 µg/mL and 28.0 µg/mL and 28.5 µg/mL
0.170 hr, mean
  Plasma Conc: 33.2 µg/mL
0.170 hr, median
  Plasma Conc: 32.1 µg/mL
0.500 hr, individual subject
  Plasma Conc: 29.2 μg/mL and 35.2 μg/mL and 30.3 μg/mL and 28.5 μg/mL and 27.6 μg/mL and 40.0 μg/mL and 44.1 μg/mL and 32.0 μg/mL (2×) and 28.9 μg/mL and 34.5 μg/mL and 32.9 μg/mL and 36.4 μg/mL and 31.4 μg/mL and 29.8 μg/mL
0.500 hr, mean
  Plasma Conc: 32.9 µg/mL
0.500 hr, median
  Plasma Conc: 32.0 µg/mL
1.00 hr, individual subject
  Plasma Conc: 25.9 μg/mL and 33.0 μg/mL and 31.3 μg/mL (2×) and 32.6 μg/mL and 23.3 μg/mL and 42.2 μg/mL (2×) and 29.9 μg/mL (2×) and 37.7 μg/mL and 34.1 μg/mL and 35.4 μg/mL and 34.3 μg/mL and 26.8 μg/mL
1.00 hr, mean
  Plasma Conc: 32.7 µg/mL
1.00 hr, median
  Plasma Conc: 32.6 µg/mL
3.00 hr, individual subject
  Plasma Conc: 27.5 μg/mL and 34.3 μg/mL (2×) and 32.4 μg/mL and 31.3 μg/mL and 25.0 μg/mL and 40.1 μg/mL and 35.3 μg/mL and 30.3 μg/mL and 29.6 μg/mL and 31.5 μg/mL and 33.3 μg/mL and 31.2 μg/mL and 26.4 μg/mL and 25.4 μg/mL
3.00 hr, mean
  Plasma Conc: 31.2 µg/mL
3.00 hr, median
  Plasma Conc: 31.3 µg/mL
8.00 hr, individual subject
  Plasma Conc: 21.1 μg/mL and 28.3 μg/mL and 31.3 μg/mL and 26.1 μg/mL and 23.6 μg/mL (2×) and 35.8 μg/mL and 32.6 μg/mL and 25.0 μg/mL and 33.6 μg/mL and 27.9 μg/mL and 32.4 μg/mL and 27.8 μg/mL and 30.0 μg/mL and 24.5 μg/mL
8.00 hr, mean
  Plasma Conc: 28.2 µg/mL
8.00 hr, median
  Plasma Conc: 27.9 µg/mL
24.0 hr, individual subject
  Plasma Conc: 18.9 μg/mL and 29.8 μg/mL and 15.5 μg/mL and 20.2 μg/mL and 15.0 μg/mL and 23.9 μg/mL and 22.7 μg/mL and 19.5 μg/mL and 26.2 μg/mL and 20.3 μg/mL (2×) and 21.2 μg/mL and 18.6 μg/mL and 25.6 μg/mL and 21.0 μg/mL
24.0 hr, mean
  Plasma Conc: 21.2 µg/mL
24.0 hr, median
  Plasma Conc: 20.3 µg/mL
48.0 hr, individual subject
  Plasma Conc: BQL (BQL (<10 μg/mL), set = 0 for PK analysis) (2×) and 19.9 μg/mL and 18.5 μg/mL and 12.6 μg/mL and 12.0 μg/mL and 16.3 μg/mL and 13.3 μg/mL and 11.8 μg/mL and 15.0 μg/mL and 12.5 μg/mL and 10.2 μg/mL and 22.0 μg/mL and 12.8 μg/mL and 12.3 μg/mL
48.0 hr, mean
  Plasma Conc: 12.6 µg/mL
48.0 hr, median
  Plasma Conc: 12.6 µg/mL
72.0 hr, individual subject
  Plasma Conc: BQL (BQL (<10 μg/mL), set = 0 for PK analysis) (8×) and 18.7 μg/mL and 14.9 μg/mL and 10.4 μg/mL and 12.0 μg/mL and 12.8 μg/mL and 13.8 μg/mL and 17.3 μg/mL
72.0 hr, mean
  Plasma Conc: 6.66 µg/mL
72.0 hr, median
  Plasma Conc: 0.00 µg/mL
240 hr, individual subject
  Plasma Conc: BQL (BQL (<10 μg/mL), set = 0 for PK analysis)
240 hr, mean
  Plasma Conc: 0.00 µg/mL
240 hr, median
  Plasma Conc: 0.00 µg/mL
From 0.3 through 1.2 mg/kg
  C10 in relation to dose: appears to be dose proportional
